Experimental data from patent EP4692122A1, “HUMANIZED ANTIBODIES TARGETING EPHA10” (priority 2023, dated 2024).

Legend:
[1] = target: T1, mouse EphA10 on mouse EphA10 overexpressing cell line (mouse, UniProt Q8BYG9 23-1007); experiment: flow cytometry on mouse EphA10 overexpressing cells, 500 ng antibody
T1 construct: whole, on cells; Parent cell line of the mouse EphA10 overexpressing line not clearly stated
T1 sequence (looked up): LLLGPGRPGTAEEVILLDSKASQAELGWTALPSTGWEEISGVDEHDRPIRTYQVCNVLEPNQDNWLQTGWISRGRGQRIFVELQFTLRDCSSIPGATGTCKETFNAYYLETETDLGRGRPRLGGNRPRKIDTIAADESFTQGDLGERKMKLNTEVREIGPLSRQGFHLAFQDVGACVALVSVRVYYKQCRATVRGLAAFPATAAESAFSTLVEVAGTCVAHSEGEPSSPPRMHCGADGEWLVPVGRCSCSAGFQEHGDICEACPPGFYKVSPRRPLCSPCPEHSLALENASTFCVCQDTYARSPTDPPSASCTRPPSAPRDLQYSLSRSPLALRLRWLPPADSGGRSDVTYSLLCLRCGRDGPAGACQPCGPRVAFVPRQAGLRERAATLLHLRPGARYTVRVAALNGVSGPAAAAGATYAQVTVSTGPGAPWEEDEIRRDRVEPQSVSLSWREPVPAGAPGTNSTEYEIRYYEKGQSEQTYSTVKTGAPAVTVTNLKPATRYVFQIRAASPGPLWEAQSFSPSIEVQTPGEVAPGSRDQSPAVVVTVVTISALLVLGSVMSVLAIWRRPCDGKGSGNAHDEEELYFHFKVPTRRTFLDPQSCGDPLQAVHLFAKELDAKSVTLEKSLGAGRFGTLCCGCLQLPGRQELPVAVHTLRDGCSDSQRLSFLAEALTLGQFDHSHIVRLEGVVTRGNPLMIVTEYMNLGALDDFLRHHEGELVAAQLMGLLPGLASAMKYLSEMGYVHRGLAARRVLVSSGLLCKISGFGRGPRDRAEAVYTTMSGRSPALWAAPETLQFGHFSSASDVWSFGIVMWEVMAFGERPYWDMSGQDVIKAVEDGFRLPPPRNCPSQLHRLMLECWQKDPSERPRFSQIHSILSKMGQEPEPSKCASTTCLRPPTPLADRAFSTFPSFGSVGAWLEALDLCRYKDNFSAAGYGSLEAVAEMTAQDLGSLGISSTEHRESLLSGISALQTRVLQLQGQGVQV

[2] = target: T2, human EphA10 on MDA-MB-231 human EphA10 overexpressing cell line (human, UniProt Q5JZY3 34-1008); experiment: flow cytometry on MDA-MB-231 human EphA10 overexpressing cells, 500 ng antibody
T2 construct: whole, on cells; also called hEphA10; cell-expressing-EphA10
T2 sequence (looked up): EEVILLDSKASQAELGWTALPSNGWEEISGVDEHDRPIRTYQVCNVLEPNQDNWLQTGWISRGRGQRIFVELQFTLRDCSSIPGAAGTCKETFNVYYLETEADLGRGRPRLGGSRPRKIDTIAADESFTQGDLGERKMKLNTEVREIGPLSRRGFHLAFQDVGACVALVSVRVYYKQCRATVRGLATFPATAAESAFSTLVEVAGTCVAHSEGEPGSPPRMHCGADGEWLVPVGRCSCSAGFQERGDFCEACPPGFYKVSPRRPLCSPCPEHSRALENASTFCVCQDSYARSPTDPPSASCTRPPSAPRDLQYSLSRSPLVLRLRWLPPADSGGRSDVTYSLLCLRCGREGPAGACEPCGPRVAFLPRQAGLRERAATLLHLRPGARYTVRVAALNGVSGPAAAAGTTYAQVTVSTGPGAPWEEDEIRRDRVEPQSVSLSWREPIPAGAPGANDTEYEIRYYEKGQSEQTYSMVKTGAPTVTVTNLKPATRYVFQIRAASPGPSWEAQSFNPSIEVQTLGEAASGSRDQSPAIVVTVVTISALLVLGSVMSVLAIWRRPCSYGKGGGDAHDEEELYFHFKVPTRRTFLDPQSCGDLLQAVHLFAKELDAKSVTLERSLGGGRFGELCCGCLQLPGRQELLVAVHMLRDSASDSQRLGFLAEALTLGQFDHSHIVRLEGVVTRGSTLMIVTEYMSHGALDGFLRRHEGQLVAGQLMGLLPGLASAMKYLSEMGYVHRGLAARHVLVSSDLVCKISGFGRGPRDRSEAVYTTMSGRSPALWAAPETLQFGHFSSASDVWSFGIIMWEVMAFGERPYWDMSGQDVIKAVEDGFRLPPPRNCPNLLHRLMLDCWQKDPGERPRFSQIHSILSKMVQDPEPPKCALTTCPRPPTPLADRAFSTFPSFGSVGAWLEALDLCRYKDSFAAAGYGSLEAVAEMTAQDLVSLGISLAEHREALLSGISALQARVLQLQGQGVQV

[3] = target: T3, mEphA10-Fc (mouse EphA10 fused with human Fc) (mouse; human, UniProt Q8BYG9 23-565); experiment: ELISA, mEphA10-Fc coated, anti-human kappa HRP
T3 construct: extracellular domain; not shown: human Fc
T3 sequence (looked up): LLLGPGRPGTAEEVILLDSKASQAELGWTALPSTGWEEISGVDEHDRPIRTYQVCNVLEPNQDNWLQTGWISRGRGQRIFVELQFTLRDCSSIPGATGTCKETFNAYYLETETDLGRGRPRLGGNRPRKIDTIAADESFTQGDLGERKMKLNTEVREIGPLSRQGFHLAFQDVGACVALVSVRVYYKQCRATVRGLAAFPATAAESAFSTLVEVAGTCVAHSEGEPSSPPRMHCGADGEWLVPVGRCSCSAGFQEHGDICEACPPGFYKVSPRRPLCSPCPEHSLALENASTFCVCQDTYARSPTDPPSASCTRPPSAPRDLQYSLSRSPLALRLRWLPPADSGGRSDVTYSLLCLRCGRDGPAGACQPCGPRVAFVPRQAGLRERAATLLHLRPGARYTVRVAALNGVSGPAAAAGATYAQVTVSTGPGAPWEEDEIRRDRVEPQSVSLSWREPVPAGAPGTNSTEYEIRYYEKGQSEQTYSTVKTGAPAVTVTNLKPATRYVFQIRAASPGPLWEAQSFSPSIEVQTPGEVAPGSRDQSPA

B1: EphA10-specific humanized antibody 1-1 (antibody, V domains shown)
VH: QVTLKESGPTLVKPTQTLTLTCTFSGFSLSTSGMGVGWIRQPPGKALEWLAHIWWDDVKRYNPALKSRLTITKDTSKNQVVLTMTNMDPVDTATYYCARTSFPAGVDYWGQGTLVTVSS
VL: DVVMTQSPLSLPVTLGQPASISCRSSQSLQNSNGNTCLNWFQQRPGQSPRRLIYRVSNRFSGVPDRFSGSGSGTDFTLKISRVEAEDVGVYYCLQVTHVPFTFGQGTKLEIKR
notes: Expressed in Expi293F cells in IgG form; detected with anti-human kappa chain; also called IMGT 1-1
- binding result [1]: binds
- binding result [2]: binds

B2: antibody A.7 (antibody, V domains shown)
VH: QVTLKESGPTLVKPTQTLTLTCTFSGFSLSTSGMGVGWIRQPPGKALEWLAHIWWDDVKRYNPALKSRLTITKDTSKNQVVLTMTNMDPVDTATYYCARTSFPAGVDYWGQGTLVTVSS
VL: DVVMTQSPLSLPVTLGQPASISCRSSQSLQNSNGNTYLNWFQQRPGQSPRRLIYRVSNRFSGVPDRFSGSGSGTDFTLKISRVEAEDVGVYYCLQGTHVPFTFGQGTKLEIKR
notes: also called A7 antibody
- binding result [3]: binds

B3: EphA10-specific humanized antibody 1-2 (antibody, V domains shown)
VH: QVTLKESGPTLVKPTQTLTLTCTFSGFSLSTSGMGVGWIRQPPGKALEWLAHIWWDDVKRYNPALKSRLTITKDTSKNQVVLTMTNMDPVDTATYYCARTSFPAGVDYWGQGTLVTVSS
VL: DIVMTQTPLSLSVTPGQPASISCRSSQSLQNSNGNTCLNWYLQKPGQSPQLLIYRVSNRFSGVPDRFSGSGSGTDFTLKISRVEAEDVGVYYCLQVTHVPFTFGQGTKLEIKR
notes: Expressed in Expi293F cells in IgG form; detected with anti-human kappa chain; also called IMGT 1-2
- binding result [1]: binds
- binding result [2]: binds

B4: antibody 2-W (antibody, V domains shown)
VH: QVTLKESGPTLVKPTQTLTLTCTFSGFSLSTSGMGVGWIRQPPGKALEWLAHIWWDDVKRYNPALKSRLTITKDTSKNQVVLTMTNMDPVDTATYYCARTSFPAGVDYWGQGTLVTVSS
VL: DIVMTQTPLSLSVTPGQPASISCRSSQSLQNSNGNTWLNWYLQKPGQSPQLLIYRVSNRFSGVPDRFSGSGSGTDFTLKISRVEAEDVGVYYCLQVTHVPFTFGQGTKLEIKR
notes: 1-2 with the free light chain CDR cysteine replaced by tryptophan; IgG form; also called 2W antibody; W2
- binding result [3]: binds
